Assay results published in patent US20240116985A1 (published 2024).
Starred links: 1 amine or outer side, 2 acyl side, 3 side chain; linkers in the order of their positions; H or OH if unused. Positions of bridges follow the written chain, without caps; N, C: chain ends. Non-standard residues stand in square brackets, D forms with d. Primed or numbered codes have the meaning given here. *: point of attachment. PyrS2″ = (S)-3-amino-1-((pent-4-en-1-yloxy)carbonyl)pyrrolidine-3-carboxylic acid (stapling residue), C=CCCCOC(=O)N1CC[C@@](N[*:1])(C(=O)[*:2])C1; B5(4) = 2,2-bis(4-pentenyl)glycine = 2-amino-2-(pent-4-en-1-yl)hept-6-enoic acid (stitching residue), C=CCCCC(CCCC=C)(N[*:1])C(=O)[*:2]; B5(5) = 2,2-bis(4-pentenyl)glycine, 2-amino-2-(pent-4-en-1-yl)hept-6-enoic acid (stitching residue), C=CCCCC(CCCC=C)(N[*:1])C(=O)[*:2]; B5(33) = 2-amino-2-(pent-4-en-1-yl)hept-6-enoic acid (bis-pentenylglycine, two olefin side chains), C=CCCCC(CCCC=C)(N[*:1])C(=O)[*:2]; B5(21) = 2-amino-2-(pent-4-en-1-yl)hept-6-enoic acid, bis(4-pentenyl)glycine (stitching residue), C=CCCCC(CCCC=C)(N[*:1])C(=O)[*:2]; PyrS2 = (S)-3-amino-1-((pent-4-en-1-yloxy)carbonyl)pyrrolidine-3-carboxylic acid, C=CCCCOC(=O)N1CC[C@@](N[*:1])(C(=O)[*:2])C1; Phe(3-COOH) = N[C@@H](Cc1cccc(C(=O)O)c1)C(=O)O; Phe(2-CF3) = N[C@@H](Cc1ccccc1C(F)(F)F)C(=O)O; Phe(2-Cl) = N[C@@H](Cc1ccccc1Cl)C(=O)O; 2Nal = N[C@@H](Cc1ccc2ccccc2c1)C(=O)O; Bta = N[C@@H](Cc1csc2ccccc12)C(=O)O; Lys(iPr) = CC(C)NCCCC[C@H](N)C(=O)O; αAllylPro = C=CC[C@@]1(C(=O)O)CCCN1; tBuAla = CC(C)(C)C[C@H](N)C(=O)O; 3Thi = N[C@@H](Cc1ccsc1)C(=O)O; Cha = N[C@@H](CC1CCCCC1)C(=O)O; Propanoyl(3-OMe) = COCCC(=O)*; Ms = CS(=O)(=O)*; iPr = CC(C)*

T1: B-cat-Halo (UniProt P35222 1-781)
T1 sequence (looked up): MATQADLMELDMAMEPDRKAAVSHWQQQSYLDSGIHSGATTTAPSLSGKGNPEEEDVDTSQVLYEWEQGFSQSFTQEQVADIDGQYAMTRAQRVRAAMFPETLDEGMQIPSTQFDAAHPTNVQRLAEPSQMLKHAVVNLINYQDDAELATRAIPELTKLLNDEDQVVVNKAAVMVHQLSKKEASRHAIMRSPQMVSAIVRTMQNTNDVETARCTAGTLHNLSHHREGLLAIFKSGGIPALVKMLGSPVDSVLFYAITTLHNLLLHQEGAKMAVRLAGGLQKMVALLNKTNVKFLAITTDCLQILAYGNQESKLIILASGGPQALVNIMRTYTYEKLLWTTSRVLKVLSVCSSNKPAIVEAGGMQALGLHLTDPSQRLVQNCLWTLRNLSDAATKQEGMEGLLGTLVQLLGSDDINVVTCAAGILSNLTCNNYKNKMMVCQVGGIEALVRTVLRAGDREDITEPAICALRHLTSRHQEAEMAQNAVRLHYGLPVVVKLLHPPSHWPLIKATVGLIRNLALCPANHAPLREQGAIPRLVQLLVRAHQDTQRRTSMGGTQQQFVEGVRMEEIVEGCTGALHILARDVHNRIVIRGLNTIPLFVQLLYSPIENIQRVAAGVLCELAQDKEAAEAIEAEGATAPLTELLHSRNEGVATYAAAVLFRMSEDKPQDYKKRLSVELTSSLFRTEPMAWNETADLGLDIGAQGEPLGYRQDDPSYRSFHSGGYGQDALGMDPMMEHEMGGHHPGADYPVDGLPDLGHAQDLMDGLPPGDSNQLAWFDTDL

T2: B-cat-Halo (beta-catenin HaloTag fusion expressed in HEK293 cells) (Homo sapiens (Human), UniProt P35222 1-781)
T2 sequence: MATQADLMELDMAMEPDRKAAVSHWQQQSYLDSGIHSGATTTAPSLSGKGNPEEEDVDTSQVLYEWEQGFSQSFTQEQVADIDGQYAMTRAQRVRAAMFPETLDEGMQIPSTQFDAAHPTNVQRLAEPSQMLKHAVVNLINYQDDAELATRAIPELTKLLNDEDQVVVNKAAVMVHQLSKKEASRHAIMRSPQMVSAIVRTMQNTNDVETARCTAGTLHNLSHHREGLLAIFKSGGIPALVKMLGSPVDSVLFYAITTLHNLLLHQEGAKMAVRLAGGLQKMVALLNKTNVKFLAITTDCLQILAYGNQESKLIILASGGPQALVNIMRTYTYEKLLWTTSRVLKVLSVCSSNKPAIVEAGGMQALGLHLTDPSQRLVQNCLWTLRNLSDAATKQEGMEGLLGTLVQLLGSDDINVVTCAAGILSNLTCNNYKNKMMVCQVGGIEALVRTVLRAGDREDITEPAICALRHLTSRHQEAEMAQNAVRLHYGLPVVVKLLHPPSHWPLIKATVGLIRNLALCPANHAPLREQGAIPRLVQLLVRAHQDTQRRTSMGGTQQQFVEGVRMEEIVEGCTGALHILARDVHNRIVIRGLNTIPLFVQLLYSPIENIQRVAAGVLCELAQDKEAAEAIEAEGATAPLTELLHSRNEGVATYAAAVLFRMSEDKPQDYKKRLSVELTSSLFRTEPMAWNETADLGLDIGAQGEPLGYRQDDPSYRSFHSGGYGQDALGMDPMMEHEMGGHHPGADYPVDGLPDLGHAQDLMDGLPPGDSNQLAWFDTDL

T3: full-length beta-Catenin (Uniprot ID P35222) (Homo sapiens (Human), UniProt P35222 2-781)
T3 construct: full-length beta-Catenin (Uniprot ID P35222); also called bCat; B-Catenin
T3 sequence: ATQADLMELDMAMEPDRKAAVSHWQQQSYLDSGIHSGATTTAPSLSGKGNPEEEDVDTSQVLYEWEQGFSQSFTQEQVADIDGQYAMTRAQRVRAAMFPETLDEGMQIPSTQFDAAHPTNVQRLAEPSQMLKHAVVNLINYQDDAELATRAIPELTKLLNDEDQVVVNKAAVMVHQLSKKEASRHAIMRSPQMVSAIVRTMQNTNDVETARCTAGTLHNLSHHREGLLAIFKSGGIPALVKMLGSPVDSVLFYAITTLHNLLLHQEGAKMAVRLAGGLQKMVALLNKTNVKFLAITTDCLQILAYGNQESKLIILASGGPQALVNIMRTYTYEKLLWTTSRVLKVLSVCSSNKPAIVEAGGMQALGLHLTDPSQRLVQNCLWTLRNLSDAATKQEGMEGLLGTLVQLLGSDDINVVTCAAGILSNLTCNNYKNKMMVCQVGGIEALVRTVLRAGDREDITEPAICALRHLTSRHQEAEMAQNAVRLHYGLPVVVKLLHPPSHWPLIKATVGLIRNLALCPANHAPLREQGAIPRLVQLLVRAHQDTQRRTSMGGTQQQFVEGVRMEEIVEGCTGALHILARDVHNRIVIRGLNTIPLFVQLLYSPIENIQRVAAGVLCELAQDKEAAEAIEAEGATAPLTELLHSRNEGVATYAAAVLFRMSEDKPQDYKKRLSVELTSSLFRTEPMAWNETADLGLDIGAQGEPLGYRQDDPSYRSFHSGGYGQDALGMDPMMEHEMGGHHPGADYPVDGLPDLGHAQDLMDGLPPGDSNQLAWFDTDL


biological target: T1, B-cat-Halo; experiment: cell-based or functional assay

Row | NanoBRET Abs IC50 | Binder
1 | > 20 µM | Ac-[αAllylPro]D[tBuAla][B5(5)]DD[Lys(iPr)]AFL[PyrS2][Phe(2-Cl)][Bta]L-NH2 (staple 1-4, 4-11; not fully specified; printed as Ac-PL3-Asp-Npg-B5-Asp-Asp-iPrLys-Ala-Phe-Leu-PyrS2-2C1F-BztA-Leu-NH2) [I-1277]
2 | 27.8 µM | Ac-[αAllylPro]D[tBuAla][B5(5)]DD[Lys(iPr)]AFL[PyrS2″][Phe(2-Cl)][Bta]Q-NH2 (staple 1-4; staple 4-11 (inferred); not fully specified; printed as Ac-PL3-Asp-Npg-B5-Asp-Asp-iPrLys-Ala-Phe-Leu-PyrS2-2C1F-BztA-Gln-NH2) [I-1275]
3 | > 20 µM | Ms-[αAllylPro]D[tBuAla][B5(33)]DDAAFN[PyrS2][Phe(2-Cl)][Bta][dT]-NH2 (staple 1-4, 4-11 (inferred); not fully specified; printed as MeSO2-PL3-Asp-Npg-B5-Asp-Asp-Ala-Ala-Phe-Asn-PyrS2-2C1F-BztA-dThr-NH2) [I-1258]
4 | > 20 µM | Ac-[αAllylPro]D[tBuAla][B5(5)]DD[Lys(iPr)]AFT[PyrS2″][Phe(2-Cl)][Bta]T-NH2 (staple 1-4; staple 4-11 (inferred); not fully specified; printed as Ac-PL3-Asp-Npg-B5-Asp-Asp-iPrLys-Ala-Phe-Thr-PyrS2-2C1F-BztA-Thr-NH2) [I-1273]
5 | 18 µM | Ac-[αAllylPro]D[tBuAla][B5(5)]DDAAF[Lys(iPr)][PyrS2][Phe(2-Cl)][Bta]Q-NH2 (staple 1-4, 4-11; not fully specified; printed as Ac-PL3-Asp-Npg-B5-Asp-Asp-Ala-Ala-Phe-iPrLys-PyrS2-2C1F-BztA-Gln-NH2) [I-1278]
6 | > 20 µM | Ac-[αAllylPro]D[tBuAla][B5(5)]DD[Lys(iPr)]AFT[PyrS2″][Phe(2-Cl)][Bta]L-NH2 (staple 1-4; staple 4-11 (inferred); not fully specified; printed as Ac-PL3-Asp-Npg-B5-Asp-Asp-iPrLys-Ala-Phe-Thr-PyrS2-2C1F-BztA-Leu-NH2) [I-1274]
7 | > 20 µM | Ac-[αAllylPro]D[tBuAla][B5(5)]DD[Lys(iPr)]AFL[PyrS2″][Phe(2-Cl)][Bta]T-NH2 (staple 1-4; staple 4-11 (inferred); not fully specified; printed as Ac-PL3-Asp-Npg-B5-Asp-Asp-iPrLys-Ala-Phe-Leu-PyrS2-2C1F-BztA-Thr-NH2) [I-1276]
8 | 20 µM | Ac-[αAllylPro]D[tBuAla][B5(33)]DTAAFT[PyrS2]F[Bta]S-NH2 (staple 1-4, 4-11 (inferred); not fully specified; printed as Ac-PL3-Asp-Npg-B5-Asp-Thr-Ala-Ala-Phe-Thr-PyrS2-Phe-BztA-Ser-NH2) [I-1263]
9 | 18.1 µM | {Propanoyl(3-OMe)}-[αAllylPro]D[tBuAla][B5(33)]DDAAFN[PyrS2][Phe(2-Cl)][Bta][dT]-NH2 (staple 1-4, 4-11 (inferred); not fully specified; printed as MeOPr-PL3-Asp-Npg-B5-Asp-Asp-Ala-Ala-Phe-Asn-PyrS2-2C1F-BztA-dThr-NH2) [I-1259]

biological target: T2, B-cat-Halo (beta-catenin HaloTag fusion …); experiment: cell-based or functional assay

Row | NanoBRET Abs IC50 | Binder
10 | 20.8 µM | Ac-[αAllylPro]D[tBuAla][B5(4)]D[Phe(3-COOH)]QAFL[PyrS2″][Phe(2-CF3)][SbMeBztA]A-NH2 (staple 1-4, 4-11) [I-2457]
11 | > 20 µM | Ac-[αAllylPro]N[Cha][B5(4)]DT[Lys(iPr)]AFL[PyrS2″]F[Bta]K-NH2 (staple 1-4, 4-11) [I-2450]
12 | > 20 µM | Ac-[αAllylPro]N[Cha][B5(5)]DQ[Lys(iPr)]AFL[PyrS2″][3Thi][Bta]Q-NH2 (staple 1-4, 4-11; not fully specified; printed as Ac-PL3-Asn-Cha-B5-Asp-Gln-iPrLys-Ala-Phe-Leu-PyrS2-3Thi-BztA-Gln-NH2) [I-2446]
13 | 4.7 µM | Ac-[αAllylPro]D[tBuAla][B5(4)]D[Phe(3-COOH)]AAFL[PyrS2″][Phe(2-CF3)][RbMe2NapA]Q-NH2 (staple 1-4, 4-11) [I-2462]
14 | 12.8 µM | Ac-[αAllylPro]D[tBuAla][B5(4)]D[Phe(3-COOH)]AAFL[PyrS2″][Phe(2-CF3)][2Nal]Q-NH2 (staple 1-4, 4-11) [I-2460]
15 | 25.4 µM | Ac-[αAllylPro]D[tBuAla][B5(4)]D[Phe(3-COOH)]QAFL[PyrS2″][Phe(2-CF3)][2Nal]A-NH2 (staple 1-4, 4-11) [I-2461]
16 | 8.1 µM | Ac-[αAllylPro]D[tBuAla][B5(4)]D[Phe(3-COOH)]AAFL[PyrS2″][Phe(2-CF3)][SbMeBztA]Q-NH2 (staple 1-4, 4-11) [I-2456]
17 | 5.9 µM | Ac-[αAllylPro]D[tBuAla][B5(4)]D[Phe(3-COOH)]AAFL[PyrS2″][Phe(2-CF3)][RbMeBztA]Q-NH2 (staple 1-4, 4-11) [I-2458]
18 | > 20 µM | Ac-[αAllylPro]N[Cha][B5(4)]DT[Lys(iPr)]AFL[PyrS2″]F[Bta]Q-NH2 (staple 1-4, 4-11) [I-2448]
19 | 15.1 µM | Ac-[αAllylPro]D[tBuAla][B5(4)]D[Phe(3-COOH)]QAFL[PyrS2″][Phe(2-CF3)][RbMeBztA]A-NH2 (staple 1-4, 4-11) [I-2459]

biological target: T3, full-length beta-Catenin (Uniprot ID …); experiment: fluorescence polarization competition; full-length beta-catenin + 5FAM-TCF4 10-53 probe, peptide titrated
Procedure: The plate was incubated protected from light for 60 minutes at 20° C. prior to read. Reads were performed on a CLARIOstar plate reader (BMG Labtech) in duplicate, and data were fitted to a 1:1 binding model with hill slope using an in-house script. All provided concentrations are final concentrations.

Row | IC50 | Binder
20 | 1.08 µM | Ac-[αAllylPro]NA[B5(21)]DQK(iPr)AFL[PyrS2″]F[Bta]Q-NH2 (staple 1-4, 4-11, also called Ac-PL3-Asn-Ala-B5-Asp-Gln-iPrLys-Ala-Phe-Leu-PyrS2-Phe-BztA-Gln-NH2) [I-1385]
21 | 2.25 µM | Ac-[αAllylPro]NA[B5(21)]DKK(iPr)AFL[PyrS2″]F[Bta]Q-NH2 (staple 1-4, 4-11, also called Ac-PL3-Asn-Ala-B5-Asp-Lys-iPrLys-Ala-Phe-Leu-PyrS2-Phe-BztA-Gln-NH2) [I-1386]
22 | 6.94 µM | Ac-[αAllylPro]NA[B5(21)]DTK(iPr)AFL[PyrS2″]F[2Nal]Q-NH2 (staple 1-4, 4-11, also called Ac-PL3-Asn-Ala-B5-Asp-Thr-iPrLys-Ala-Phe-Leu-PyrS2-Phe-2NapA-Gln-NH2) [I-1387]
